Measured values: patent publication US20120220489A1

Legend:
[1] = target: ERK1 (p42) active (phospho), human, Active Motif 31 152 (human) (UniProt P27361); assay: RPA, normal assay
[2] = target: ERK1 (p44) active (GST tagged), human, Invitrogen PV 3311 (human) (UniProt P27361); assay: RPA, normal assay
[3] = target: ERK1 (p44) inactive (GST tagged), human, Invitrogen PV 3312 (human) (UniProt P27361); assay: RPA, normal assay
[4] = target: ERK1 (p44), human, Cell Signaling Technology 7416 (human) (UniProt P27361); assay: RPA, normal assay
[5] = target: ERK2 (p42), human, Biosource PHO 0104 (human) (UniProt P28482); assay: RPA, normal assay
UniProt P28482, sequence (P28482 2-360 limits assumed): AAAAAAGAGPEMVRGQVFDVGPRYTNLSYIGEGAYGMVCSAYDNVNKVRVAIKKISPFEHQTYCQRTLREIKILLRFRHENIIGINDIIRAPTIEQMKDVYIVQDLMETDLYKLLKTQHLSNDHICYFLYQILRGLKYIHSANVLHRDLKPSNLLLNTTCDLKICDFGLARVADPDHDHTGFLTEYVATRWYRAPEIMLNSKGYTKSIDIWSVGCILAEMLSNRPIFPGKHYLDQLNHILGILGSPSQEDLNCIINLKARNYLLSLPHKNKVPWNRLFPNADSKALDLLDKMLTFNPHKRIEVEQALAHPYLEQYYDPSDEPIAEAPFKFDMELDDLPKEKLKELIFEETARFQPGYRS

[6] = target: Erk1-BSA 2.7x peptide-protein conjugate (human; bovine); assay: RPA, normal assay
Erk1-BSA 2.7x peptide-protein conjugate (human; bovine), sequence (peptide, as listed by the source limits assumed, chain 1 of 2): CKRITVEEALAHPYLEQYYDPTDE
Erk1-BSA 2.7x peptide-protein conjugate (human; bovine), sequence (P02769 25-607 limits assumed, chain 2 of 2): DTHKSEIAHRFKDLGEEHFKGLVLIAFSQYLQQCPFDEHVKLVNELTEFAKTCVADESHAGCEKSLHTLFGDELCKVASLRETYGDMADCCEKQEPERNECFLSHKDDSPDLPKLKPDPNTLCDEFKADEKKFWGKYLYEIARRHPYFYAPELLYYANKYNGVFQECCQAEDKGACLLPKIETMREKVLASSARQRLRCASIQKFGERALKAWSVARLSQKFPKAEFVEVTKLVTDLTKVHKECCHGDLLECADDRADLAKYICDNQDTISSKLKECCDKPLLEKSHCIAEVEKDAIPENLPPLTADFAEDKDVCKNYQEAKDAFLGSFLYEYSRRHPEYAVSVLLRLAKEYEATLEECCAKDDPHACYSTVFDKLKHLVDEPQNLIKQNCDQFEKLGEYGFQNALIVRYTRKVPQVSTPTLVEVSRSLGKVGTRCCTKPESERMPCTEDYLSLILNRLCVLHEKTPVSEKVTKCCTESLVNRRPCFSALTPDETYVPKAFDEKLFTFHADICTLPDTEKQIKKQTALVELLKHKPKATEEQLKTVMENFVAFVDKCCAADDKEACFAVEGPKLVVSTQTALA

[7] = target: Histone H3 recombinant protein, calf, Roche 11 034 758 001 (calf) (UniProt P68432); assay: RPA, normal assay
[8] = target: Histone H3 recombinant protein, human, Upstate 14-494 (human) (UniProt P68431); assay: RPA, normal assay
[9] = target: Histone H3-BSA 2.7x peptide-protein conjugate (bovine); assay: RPA, normal assay
Histone H3-BSA 2.7x peptide-protein conjugate (bovine), sequence (P02769 25-607 limits assumed): as the sequence (P02769 25-607 limits assumed, chain 2 of 2) above

[10] = target: pRb recombinant protein, human, Active Motif 31 128 (human) (UniProt P06400); assay: RPA, normal assay
UniProt P06400, sequence (P06400 whole entry): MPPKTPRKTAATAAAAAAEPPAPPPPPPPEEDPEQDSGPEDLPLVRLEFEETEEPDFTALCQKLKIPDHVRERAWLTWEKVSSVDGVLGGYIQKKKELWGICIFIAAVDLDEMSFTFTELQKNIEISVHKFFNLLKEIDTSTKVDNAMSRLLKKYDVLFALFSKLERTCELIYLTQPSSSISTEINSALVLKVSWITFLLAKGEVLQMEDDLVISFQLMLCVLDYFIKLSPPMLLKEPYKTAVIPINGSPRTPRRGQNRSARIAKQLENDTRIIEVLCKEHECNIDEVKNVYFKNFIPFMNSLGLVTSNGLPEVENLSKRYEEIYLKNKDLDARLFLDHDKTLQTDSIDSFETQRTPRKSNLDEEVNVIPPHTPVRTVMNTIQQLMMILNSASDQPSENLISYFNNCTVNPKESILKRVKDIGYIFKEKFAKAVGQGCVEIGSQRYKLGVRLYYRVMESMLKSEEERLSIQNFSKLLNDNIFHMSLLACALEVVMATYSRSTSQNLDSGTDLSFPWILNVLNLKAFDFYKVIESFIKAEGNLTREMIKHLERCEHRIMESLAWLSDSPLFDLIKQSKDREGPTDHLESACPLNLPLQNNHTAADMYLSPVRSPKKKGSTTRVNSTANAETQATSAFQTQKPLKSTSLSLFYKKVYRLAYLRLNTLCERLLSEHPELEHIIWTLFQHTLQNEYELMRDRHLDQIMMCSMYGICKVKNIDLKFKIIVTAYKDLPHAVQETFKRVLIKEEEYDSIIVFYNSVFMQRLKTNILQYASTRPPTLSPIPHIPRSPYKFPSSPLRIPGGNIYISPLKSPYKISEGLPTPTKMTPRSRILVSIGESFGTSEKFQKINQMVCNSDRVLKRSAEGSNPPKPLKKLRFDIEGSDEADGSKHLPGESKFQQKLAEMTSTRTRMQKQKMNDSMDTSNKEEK

[11] = target: pRb-BSA 1x peptide-protein conjugate (bovine); assay: RPA, normal assay
pRb-BSA 1x peptide-protein conjugate (bovine), sequence (P02769 25-607 limits assumed): as the sequence (P02769 25-607 limits assumed, chain 2 of 2) above

[12] = target: ERK1 (p42) active (phospho), human, Active Motif 31 152 (human) (UniProt P27361); assay: RPA, competition: +free Erk1 peptide 1000 nM
[13] = target: ERK1 (p44) active (GST tagged), human, Invitrogen PV 3311 (human) (UniProt P27361); assay: RPA, competition: +free Erk1 peptide 1000 nM
[14] = target: ERK1 (p44) inactive (GST tagged), human, Invitrogen PV 3312 (human) (UniProt P27361); assay: RPA, competition: +free Erk1 peptide 1000 nM
[15] = target: ERK1 (p44), human, Cell Signaling Technology 7416 (human) (UniProt P27361); assay: RPA, competition: +free Erk1 peptide 1000 nM
[16] = target: ERK2 (p42), human, Biosource PHO 0104 (human) (UniProt P28482); assay: RPA, competition: +free Erk1 peptide 1000 nM
[17] = target: Erk1-BSA 2.7x peptide-protein conjugate (human; bovine); assay: RPA, competition: +free Erk1 peptide 1000 nM
[18] = target: Histone H3 recombinant protein, calf, Roche 11 034 758 001 (calf) (UniProt P68432); assay: RPA, competition: +free Erk1 peptide 1000 nM
[19] = target: Histone H3 recombinant protein, human, Upstate 14-494 (human) (UniProt P68431); assay: RPA, competition: +free Erk1 peptide 1000 nM
[20] = target: Histone H3-BSA 2.7x peptide-protein conjugate (bovine); assay: RPA, competition: +free Erk1 peptide 1000 nM
[21] = target: pErk1/2-BSA 2.7x peptide-protein conjugate (human; bovine); assay: RPA, competition: +free Erk1 peptide 1000 nM
pErk1/2-BSA 2.7x peptide-protein conjugate (human; bovine), sequence (P02769 25-607 limits assumed): as the sequence (P02769 25-607 limits assumed, chain 2 of 2) above

[22] = target: pRb recombinant protein, human, Active Motif 31 128 (human) (UniProt P06400); assay: RPA, competition: +free Erk1 peptide 1000 nM
[23] = target: pRb-BSA 1x peptide-protein conjugate (bovine); assay: RPA, competition: +free Erk1 peptide 1000 nM
[24] = target: ERK1 (p42) active (phospho), human, Active Motif 31 152 (human) (UniProt P27361); assay: RPA, competition: +recombinant protein 100 nM (not named)
[25] = target: ERK1 (p44) active (GST tagged), human, Invitrogen PV 3311 (human) (UniProt P27361); assay: as above
[26] = target: ERK1 (p44) inactive (GST tagged), human, Invitrogen PV 3312 (human) (UniProt P27361); assay: as above
[27] = target: ERK1 (p44), human, Cell Signaling Technology 7416 (human) (UniProt P27361); assay: as above
[28] = target: ERK2 (p42), human, Biosource PHO 0104 (human) (UniProt P28482); assay: as above
[29] = target: Erk1-BSA 2.7x peptide-protein conjugate (human; bovine); assay: as above
[30] = target: Histone H3 recombinant protein, calf, Roche 11 034 758 001 (calf) (UniProt P68432); assay: as above
[31] = target: Histone H3 recombinant protein, human, Upstate 14-494 (human) (UniProt P68431); assay: as above
[32] = target: Histone H3-BSA 2.7x peptide-protein conjugate (bovine); assay: as above
[33] = target: pErk1/2-BSA 2.7x peptide-protein conjugate (human; bovine); assay: as above
[34] = target: pRb recombinant protein, human, Active Motif 31 128 (human) (UniProt P06400); assay: as above
[35] = target: pRb-BSA 1x peptide-protein conjugate (bovine); assay: as above

| Substance | maximum standard curve signal [1] [RFI] | maximum standard curve signal [2] [RFI] | maximum standard curve signal [3] [RFI] | maximum standard curve signal [4] [RFI] | maximum standard curve signal [5] [RFI] | maximum standard curve signal [6] [RFI] | maximum standard curve signal [9] [RFI] | maximum standard curve signal [11] [RFI] | maximum standard curve signal [12] [RFI] | maximum standard curve signal [13] [RFI] | maximum standard curve signal [14] [RFI] | maximum standard curve signal [15] [RFI] | maximum standard curve signal [16] [RFI] | maximum standard curve signal [17] [RFI] | maximum standard curve signal [18] [RFI] | maximum standard curve signal [19] [RFI] | maximum standard curve signal [20] [RFI] | maximum standard curve signal [21] [RFI] | maximum standard curve signal [22] [RFI] | maximum standard curve signal [23] [RFI] | also measured |
| --- | --- | --- | --- | --- | --- | --- | --- | --- | --- | --- | --- | --- | --- | --- | --- | --- | --- | --- | --- | --- | --- |
| p44/42 MAPK (Erk1/2) antibody, Cell Signaling Technology #4695, rabbit monoclonal | 0.22 | 5.17 | 7.12 | 0.04 | 1.51 | 2.77 | 0.01 | 0.01 | < 0.01 | 0.02 | 0.04 | < 0.01 | 0.01 | 0.01 | < 0.01 | < 0.01 | 0.01 | 0.01 | < 0.01 | 0.01 | maximum standard curve signal [7]: 0.01 RFI; maximum standard curve signal [8]: 0.01 RFI; maximum standard curve signal [10]: 0.01 RFI; maximum standard curve signal [24]: 0.11 RFI; maximum standard curve signal [25]: 0.39 RFI; maximum standard curve signal [26]: 0.59 RFI; maximum standard curve signal [27]: 0.1 RFI; maximum standard curve signal [28]: 0.16 RFI; maximum standard curve signal [29]: 0.29 RFI; maximum standard curve signal [30]: 0.08 RFI; maximum standard curve signal [31]: 0.1 RFI; maximum standard curve signal [32]: 0.12 RFI; maximum standard curve signal [33]: 0.09 RFI; maximum standard curve signal [34]: 0.09 RFI; maximum standard curve signal [35]: 0.1 RFI |
| p44/42 MAPK (Erk1/2) antibody, Cell Signaling Technology #9102, rabbit polyclonal | 0.36 | 7.2 | 8.96 | 0.05 | 1.51 | 2.44 | 0.08 | 0.01 | 0.23 | 4.65 | 7.28 | 0.03 | 0.91 | 0.06 | < 0.01 | < 0.01 | 0.07 | 0.01 | < 0.01 | 0.01 | maximum standard curve signal [24]: 0.03 RFI; maximum standard curve signal [25]: 0.11 RFI; maximum standard curve signal [26]: 0.19 RFI; maximum standard curve signal [27]: 0.03 RFI; maximum standard curve signal [28]: 0.07 RFI; maximum standard curve signal [29]: 0.12 RFI; maximum standard curve signal [30]: 0.03 RFI; maximum standard curve signal [31]: 0.03 RFI; maximum standard curve signal [32]: 0.1 RFI; maximum standard curve signal [33]: 0.04 RFI; maximum standard curve signal [34]: 0.04 RFI; maximum standard curve signal [35]: 0.04 RFI |
